Where two headings read alike, the source gives them in different places. No end group written: not given here.
Format: in vivo
Settings: for Body weight (Mean ± SD) / PI (BW), inhibition of body weight vs vehicle: low-dose arms: TA-1 6 mg/kg s.c. daily, Pac 10 + Ele 10 mg/kg co-i.v. Days 1, 7, 13
Procedure: In this study, the anti-tumor effect of the combined treatment of thymosin alpha-1 (TA-1), Paclitaxel (Pac) and Elesclomol (Ele) was evaluated in C57BL/6 mice bearing B16 melanoma cells. The toxic effects of the dosing regimens were also monitored. A total of 60 mice were implanted subcutaneously with murine B16 cells, followed by treatment with TA-1 or Pac/Ele alone or in combination for 14 consecutive days. TA-1 was given daily via s.c., while Pac and Ele were co-i.v. administered on Day 1, 7 and 13. In total, 6 groups were used: Group 1: vehicle; Group 2: TA-1 6 mg/kg; Group 3: Pac 10 mg/kg+Ele 10 mg/kg; Group 4: Pac 30 mg/kg+Ele 30 mg/kg; Group 5: TA-1 6 mg/kg+Pac 10 mg/kg+Ele 10 mg/kg; and Group 6: TA-1 6 mg/kg+Pac 30 mg/kg+Ele 30 mg/kg. Tumor volume and body weight were measured every three days, and tumor weights were measured on Day 17 at the end of the study.
On Day 1, the animals were randomly assigned into different weight-matched groups, and dosing was started using the regimen according to Table 2. Briefly, TA-1 was administered once daily via subcutaneous (s.c.) injection for 14 consecutive days at a site different from that of tumor cell implantation, while Pac and Ele was administered on Days 1, 7, and 13 via an intravenous (i.v.) injection.
From Day 1 to Day 15, mortality and moribundity were checked twice daily, the body weights were recorded once every 3 days, and tumors were measured using a caliper once every 3 days. At the end of the study (Day 17), the animals were euthanized by CO2 asphyxiation, and the tumors were excised and weighed.
Toxicity of all treatment regimens was evaluated with the body weights of the study animals along with the drug-induced animal deaths. The inhibition of body weight was calculated using Excel according to the equation below:
PIBW(%)=100×(BW vehicle−BW drug treated)/BW vehicle
Inter-group comparison was performed in terms of tumor volume, tumor weight and body weight, using a student's t test. P values of less than 0.05 were considered to be statistically significant.

Substance: thymosin alpha 1 (SDAAVDTSSEITTKDLKEKKEVVEEAEN; ends and bridges not checked; UniProt P06454 2-29, looked up) [TA-1, 28 amino acid peptide with a molecular weight of 3108; immunomodulator]
- Body weights (Day 0, animal F1): 21.5 g
- Body weights (Day 0, animal F2): 20.8 g
- Body weights (Day 0, animal F3): 19.3 g
- Body weights (Day 0, animal F4): 20.0 g
- Body weights (Day 0, animal F5): 19.9 g
- Body weights (Day 0, animal M1): 21.8 g
- Body weights (Day 0, animal M2): 21.5 g
- Body weights (Day 0, animal M3): 22.9 g
- Body weights (Day 0, animal M4): 20.7 g
- Body weights (Day 0, animal M5): 21.4 g
- Body weights (Day 3, animal F2): 19.0 g
- Body weights (Day 3, animal F3): 20.2 g
- Body weights (Day 3, animal F4): 19.8 g
- Body weights (Day 3, animal F5): 19.1 g
- Body weights (Day 3, animal M1): 21.1 g
- Body weights (Day 3, animal M2): 17.8 g
- Body weights (Day 3, animal M3): 19.7 g
- Body weights (Day 3, animal M4): 20.4 g
- Body weights (Day 3, animal M5): 19.8 g
- Body weight (Mean ± SD) (Day 3): 19.44 ± 1.12 g
- PI (BW), inhibition of body weight vs vehicle (Day 3): 1.17%
- Body weights (Day 6, animal F2): 21.2 g
- Body weights (Day 6, animal F3): 21.2 g
- Body weights (Day 6, animal F4): 20.7 g
- Body weights (Day 6, animal F5): 21.5 g
- Body weights (Day 6, animal M1): 22.8 g
- Body weights (Day 6, animal M2): 22.3 g
- Body weights (Day 6, animal M3): 22.7 g
- Body weights (Day 6, animal M4): 21.1 g
- Body weights (Day 6, animal M5): 22.2 g
- Body weight (Mean ± SD) (Day 6): 21.63 ± 0.81 g
- PI (BW), inhibition of body weight vs vehicle (Day 6): −0.42%
- Body weights (Day 9, animal F1): 20.4 g
- Body weights (Day 9, animal F2): 20.7 g
- Body weights (Day 9, animal F3): 20.4 g
- Body weights (Day 9, animal F4): 20.2 g
- Body weights (Day 9, animal F5): 20.0 g
- Body weights (Day 9, animal M1): 22.5 g
- Body weights (Day 9, animal M2): 21.2 g
- Body weights (Day 9, animal M3): 22.5 g
- Body weights (Day 9, animal M4): 20.9 g
- Body weights (Day 9, animal M5): 21.7 g
- Body weight (Mean ± SD) (Day 9): 21.05 ± 0.91 g
- PI (BW), inhibition of body weight vs vehicle (Day 9): 1.13%
- Body weights (Day 12, animal F1): 21.5 g
- Body weights (Day 12, animal F2): 21.3 g
- Body weights (Day 12, animal F3): 20.2 g
- Body weights (Day 12, animal F4): 20.1 g
- Body weights (Day 12, animal F5): 20.1 g
- Body weights (Day 12, animal M1): 22.4 g
- Body weights (Day 12, animal M2): 21.5 g
- Body weights (Day 12, animal M3): 22.4 g
- Body weights (Day 12, animal M4): 21.0 g
- Body weights (Day 12, animal M5): 22.2 g
- Body weight (Mean ± SD) (Day 12): 21.27 ± 0.91 g
- PI (BW), inhibition of body weight vs vehicle (Day 12): 2.03%
- Body weights (Day 15, animal F1): 21.7 g
- Body weights (Day 15, animal F2): 21.5 g
- Body weights (Day 15, animal F3): 21.2 g
- Body weights (Day 15, animal F4): 21.2 g
- Body weights (Day 15, animal F5): 21.1 g
- Body weights (Day 15, animal M1): 22.5 g
- Body weights (Day 15, animal M2): 22.5 g
- Body weights (Day 15, animal M3): 23.4 g
- Body weights (Day 15, animal M4): 22.0 g
- Body weights (Day 15, animal M5): 23.6 g
- Body weight (Mean ± SD) (Day 15): 22.07 ± 0.91 g
- PI (BW), inhibition of body weight vs vehicle (Day 15): 1.25%
